The text below walks through data of patent publication US20080045454A1 (TRUSTEES OF COLUMBIA UNIVERSITY IN THE CITY OF NEW YORK, published 2008).

Experiment [1] deals with T1, TRIMCyp fused to lexA (owl monkey (Aotus trivirgatus)).
T1 construct: Yeast two-hybrid bait; also called LexA-TRIMCyp; not shown: LexA, fusion partner of the yeast two-hybrid system
Description: yeast two-hybrid, β-galactosidase reporter.

In experiment [2] the target is T2, TRIMStop fused to lexA (owl monkey (Aotus trivirgatus)).
T2 construct: Yeast two-hybrid bait; also called LexA-TRIMStop; not shown: LexA, fusion partner of the yeast two-hybrid system
T2 chain: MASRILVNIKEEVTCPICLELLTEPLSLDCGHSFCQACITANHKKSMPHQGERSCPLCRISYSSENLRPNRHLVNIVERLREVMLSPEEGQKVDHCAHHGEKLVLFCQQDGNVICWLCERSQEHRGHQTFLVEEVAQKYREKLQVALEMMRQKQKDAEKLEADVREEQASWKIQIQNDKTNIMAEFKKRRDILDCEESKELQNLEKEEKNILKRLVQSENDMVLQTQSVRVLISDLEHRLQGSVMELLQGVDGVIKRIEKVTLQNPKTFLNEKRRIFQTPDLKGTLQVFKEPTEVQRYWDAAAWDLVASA
Description: yeast two-hybrid, β-galactosidase reporter.

Experiment [3] has as its target T3, GST-TRIM5αhu (glutathione S-transferase fusion with full-length human TRIM5α) (human, UniProt Q9C035 2-493).
T3 construct: mature; Produced in 293T cells; also called GST-T5α; not shown: glutathione S-transferase (GST)
In words: immunofluorescence colocalization in cotransfected TE671 cells.

T3 sequence (Q9C035 2-493): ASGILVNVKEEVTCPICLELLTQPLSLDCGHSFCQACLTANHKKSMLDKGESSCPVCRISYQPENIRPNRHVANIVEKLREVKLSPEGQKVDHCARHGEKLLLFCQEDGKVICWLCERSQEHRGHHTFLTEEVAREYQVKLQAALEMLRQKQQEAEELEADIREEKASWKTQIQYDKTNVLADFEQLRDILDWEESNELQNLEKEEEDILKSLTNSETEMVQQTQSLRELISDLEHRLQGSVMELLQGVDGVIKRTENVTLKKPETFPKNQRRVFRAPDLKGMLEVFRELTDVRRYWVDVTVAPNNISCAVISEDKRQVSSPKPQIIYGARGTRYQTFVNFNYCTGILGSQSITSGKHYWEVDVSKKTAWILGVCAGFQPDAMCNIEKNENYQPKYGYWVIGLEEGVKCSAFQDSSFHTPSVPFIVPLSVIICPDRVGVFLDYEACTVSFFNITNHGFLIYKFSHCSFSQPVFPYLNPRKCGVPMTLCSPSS

B1: TRIMStop expressed in fusion with the B42 activation domain (other, not shown: large carriers)
chain: T2 chain
notes: also called B42-TRIMStop
For B1, the binding result in experiment [1] and in experiment [2] was “binds” in each case.

B2: 3× FLAG N-terminal-tagged TRIMStop (other)
chain: T2 chain
notes: also called FLAG-TRIMStop; not shown: 3x FLAG tag of p3xFLAG.CMV (SIGMA)
Consider B2, for which, in experiment [3], the binding result is “binds”.
